Our source for the Kd, koff and kon values is article PMC6391921.

The target in this experiment is full-length H7 HA trimer (influenza A virus (H7)). The experiment is described as follows: BLI.

By Kd is commonly meant the free concentration of one partner at which half of the binding sites on the other are occupied at equilibrium, for simple one-to-one binding. A high value points to lower affinity. One may read the koff as a measure of how fast the partners let go of each other. A word on the kon: it is the rate constant with which the complex forms. Read a low kon as slow association. The substance CT149 Fab came in with an equilibrium dissociation constant (Kd) of 3.7 nM, a koff of 0.0031 s⁻¹ and a kon of 360000 M⁻¹ s⁻¹.
